The record followed here is the DeepSol protein solubility set.

A short description of this series: soluble on expression in E. coli; label from the status in PepcDB or PDB records.
“MSLKARPTIAEVARRAGVSPATVSRVLNGTARVSPEKVRAVLQAVEELGYAPSPLAQGLATGRSYAVGILLSDFASPFFGPILEALTLELEATPYRPIAVPGHWSLVRELEALEFLKAHRVEALVLLGTALDGEALGELGIPVLAFGQRVEGPKAWSLCLDNQQAAYEATRYLIDRGHTRIVHISSHRGGMDVRDRLLGYRKAMREAGLEARVVYGDLEEEGGYRAAAEAFRRYPDTTAIFAANDQTAFGARLYLYEQGLRVPEDVSLVGFDDIALSAYQIPPLTTVRQPIQDIGIALGRALRAVLAGEVPTLPRLELRLVERASVREVREGHHHHHH”: the “soluble on expression in E. coli” value is listed as “soluble”.
Consider “MMSLLAVGLVFGLAACSGTSDAKGKIVISGKKFTEQVILTHLLAEYVKANTDLDVEVKDSLGGAFMLQQAIENGDVDMYVEYTGTGYLNILKQPYDPAKTPEQIYNETKKLYKEKYNIAWLKPLGFNNTYALAMRRDLAEKLGVKTYSDLAKHSSSLTFGSDAEFFERSDGYDGLVDTYGFQFKKKVTIDPDLQYEAAKNSEIDVITAYTTDARIKKYDLVVLKDDKQYFPPYHAVPIIRQEVLDANPGLEKKLNKLANILTDEKMMELNGQVNLEGKQPREVALDFLKAEGLID”, for which the “soluble on expression in E. coli” value was “not soluble”.
In the case of “GPGSMSSGSHRSPSAMRPSTRISSIGATSNRSSTHNTETELDPFVASLSRVTVYTDIPDKTLQRIMSITVDAYNRFVLVPTRNTWRKEEGSRKELEREVERTALRDIAQAVKVNVEAALGGTWHVIYGRSFATYVTHQQRCFCHFQLDGANVVVWRHGG”, the “soluble on expression in E. coli” value was “soluble”.
For “SVHKPSGQIMAVKRIRSTVDEKEQKQLLMDLDVVMRSSDCPYIVQFYGALFREGDCWICMELMSTSFDKFYKYVYSVLDDVIPEEILGKITLATVKALNHLKENLKIIHRDIKPSNILLDRSGNIKLCDFGISGQLVDSIAKTRDAGCRPYMAPERIDPSASRQGYDVRSDVWSLGITLYELATGRFPYPKWNSVFDQLTQVVKGDPPQLSNSEEREFSPSFINFVNLCLTKDESKRPKYKELLKHPFILMYEERTVEVACYVCKILDQMPATPSSPMYVD”, the “soluble on expression in E. coli” value was “soluble”.
Next, “MCLVALAWKTHPRWRLLLAGNRDEFHERPTAPLAQWAAPAERVLAGRDLRSGGSWVGLGLDGRAAVVTNVRDPLATASGRSRGHLIADYLSGSADAATYARELAAAGQEFPPFNLLLCDAERCEHLSNHPALARALAPGIHGMSNGPLDAHWPKTTALTHALAAWCDSGSDDLQPLWTALANPATAADADLPHTGVDRATERLLSAAFIRGASYGTRASTIVAVDHHGHGFIHERRFGPDGVFQGETRLDVAGMHLEHHHHHH”: “not soluble”.
As to “MNAAEVIVYEHVNFGGKSFDATSDQPGAGDNLNDKISSIKVKSGTWRFYEYINYGGRYWDLGPGEYSSVESAGIPDNSISSFRQI”, the “soluble on expression in E. coli” value is “soluble”.
As to “MSLYKAYLIDLDGTMYRGAEVIPEAIIFIENLKRAGLPYLFVTNNSTKTPGQVAEHLTDMGIQAVSDDVFTTSQATVQFMMEQKREKTVYVIGERGIKQELTDNGFEITSSNPAFVVVGLDREVDYEKFSKAALAVRGGAMFISTNGDAAIPTERGLLPGNGSITSVVSVATETAPIFIGKPESIIMEQALAKLGVHKDEAIMVGDNYETDIMAGINYGMDTLIVHTGFTSKEALLTKEIQPTYAVTKLTDWEFNEGHHHHHH”, the “soluble on expression in E. coli” value is “not soluble”.
As for “MGHHHHHHSHMAFCAILLVPSLCRMPSLPTSPWAFPVHWAGFMFKPLDWQGNDFFPPQDEVLAPCLGIKTPLKHEPCASLPFSVLFQSSASQSLLGTMGSLSPHLCGHTMCPVNPELPLSFQADHRSAQPDACSPLCHPSSLLPSFHTASLPFSIHAHHSPLPCDLDPPLYLAETVSLLEEWGPPSSCPMQCKLTSHPARLTHLPPCLWGFAVALKPSWAGLAPSLLPPPRMSLCRPLSFLRHQCPWLPWQAHQGLVPWSPSMVAAACIVSPSGHCRCQPFIPHVFLGHGGLTSVSGECG”, the entry is “not soluble”; as for “MGSDKIHHHHHHMLGLKLPTDPRWVEIVETNIPEILTDHAYCEQKATTNAMYIVINFPEYTELVSDMIDLAQEELQHFKMVHDIIKKRGLVLGRARAAPYAGDIYAFMRKGHIRKYVLIDRLLFSALIEARSCERFRLLSEQISDPELKEFYRELMISEATHYTTFINYARKYSEGEDIDKRWQEFLAYEATVISKYGDNATMHG”, “not soluble”; as for “MIRVHSYESMGTFDGPGLRLVVFLQGCNFRCLYCANPDTIDTKGESTETAIDEIVRMAVSQKAFFGKKGGVTFSGGEPTLQAKALIPLFQRLKEQNIHICIDTNGSIWNEEVEELLKWTDLVLLDIKEFNNVRHRQLTERSNEQTIRTAEWLEKNGKPFWLRYVLVPGYSSFEEDIRALGEHFKNYHMIQRVEILPYHTLGVHKYEAMGKEYKLNGIKENTLEQLETAKTLFGEYFNTVYLN”, “not soluble”.
Next, “MSLTQVHFTLKSEEIQSIIEYSVKDDVSKNILTTVFNQLMENQRTEYIQAKEYERTENRQSQRNGYYERSFTTRVGTLELKVPRTRDGHFSPTVFERYQRNEKALMASMLEMYVSGVSTRKVSKIVEELCGKSVSKSFVSSLTEQLEPMVNEWQNRLLSEKNYPYLMTDVLYIKVREENRVLSKSCHIAIGITKDGDREIIGFMIQSGESEETWTTFFEYLKERGLQGTELVISDAHKGLVSAIRKSFTNVSWQRCQVHFLRNIFTTIPKKNSKSFREAVKGIFKFTDINLAREAKNRLIHDYIDQPKYSKACASLDDGFEDAFQYTVQGNSHNRLKSTNLIERLNQEVRRREKIIRIFPNQTSANRLIGAVLMDLHDEWIYSSRKYINFDKEGHHHHHH”: “soluble”; “MVKSVGCKNLSLDVKKAIVAGFEQGTPTKMLALQIQRSPSTIWKVIKKYQTEKSVALRISPGRPRVTTHRMDRNILRSAREDPHRTATDIQTIISSPNEPVPSKRTVRRRLQQAGLHGRKPVKKPFISKKNRMARVAWAKAHLRWGRQEWAKHIWSDESKFNLFGSDGNSWVRRPVGSRYSPKYQCPTVKHGGGSVMVWGCFTSTSMGPLRRIQSIMDRFQYENILETTMRPWALQNVGRGFVFQQDNDPKHTSLHVRSWFQPCRVHLLDWPSQSPDLNPIEHLWEELERRLGGIRASNADAKFNQLENAWKAIPMSVIHKLIDSMPRRCLAVIDANGYATKY”: “not soluble”; “MGSDKIHHHHHHMIRGEMTMPSLTFQEIDNHLMNDNKPSNFIIELNKAGIIETEYPFTLLGALKDTPQSPKHHPEGSVWNHTLMVLDNAAERKHLSQNPQVLMWAALLHDLGKAPTTRVRKGRITSYDHDAVGEKLAGQFLRELTRDERFIHQVAKMVRWHMQILFVVKGLPFANVKKMAAEVSIEEIALLGFCDRLGRGEMTPQKKQEEEQTIEKFLVRCMEILQG”: “not soluble”.
For the sequence “MAHHHHHHMLKKGFTATKIIGKRCFQWWDNLNTSWKFAIGFSVLFPPLWNYNERRKAREKQVYYNKSIKDYVFFDIAIENKYVGRVLIGLYSDQVPLSVENFIQLAEGYKVKDKYIGYRNTFIHKIYPGIGLVGGNVLNDKEGLSIYGKKFPDENFDMEFVQDGDVALFNEGPHSNSSQFIITFSPMPILHKHNVVIGTVLKGMDIIRMIENVGTKLGNPMYNVKIINCGLYRSLEQDGPPFFNMLHISDKGNKNIISKKEFENLSEQQRQSLMEEIGKSEKQR”, the “soluble on expression in E. coli” value is recorded as “not soluble”.
Turning to “SNAMVEAIIFDMDGVLFDTEKYYYDRRASFLGQKGISIDHLPPSFFIGGNTKQVWENILRDEYDKWDVSTLQEEYNTYKQNNPLPYKELIFPDVLKVLNEVKSQGLEIGLASSSVKADIFRALEENRLQGFFDIVLSGEEFKESKPNPEIYLTALKQLNVQASRALIIEDSEKGIAAGVAADVEVWAIRDNEFGMDQSAAKGLLDSLTDVLDLI”, the “soluble on expression in E. coli” value is listed as “soluble”.
For the sequence “MALKNNTLWTGPKPEANCIIEYGKQNPDSKLTLILVKNGGIVNGYVTLMGASDYVNTLFKNKNVSINVELYFDATGHILPDSSSLKTDLELKYKQTADFSARGFMPSTTAYPFVLPNAGTHNENYIFGQCYYKASDGALFPLEVTVMLNKRLPDSRTSYVMTFLWSLNAGLAPETTQATLITSPFTFSYIREDD”, the “soluble on expression in E. coli” value is recorded as “soluble”.
